According to patent CN101001872A (MACROGENICS INC, dated 2007):
Blank lines part the entries; values can stand above or below the molecule they belong to.

Assays:
细胞表面的人FcγRIIB (CD32B) [1] = molecular target: T1, 细胞表面的人FcγRIIB (CD32B) (human, UniProt P31994 43-310); assay: two-colour FACS on CHO cells with full-length FcγRIIB, after mouse IgG1 isotype control
T1 construct: whole, on cells; also called huFcγRIIB; CHO/IIB
T1 sequence (looked up): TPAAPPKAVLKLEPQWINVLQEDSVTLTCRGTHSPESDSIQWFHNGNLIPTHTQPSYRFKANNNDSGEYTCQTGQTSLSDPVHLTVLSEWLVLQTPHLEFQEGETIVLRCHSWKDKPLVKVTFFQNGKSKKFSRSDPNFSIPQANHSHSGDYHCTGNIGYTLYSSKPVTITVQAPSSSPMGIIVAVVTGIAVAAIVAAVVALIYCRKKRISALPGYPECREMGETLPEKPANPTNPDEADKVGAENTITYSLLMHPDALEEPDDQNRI

细胞表面的人FcγRIIB (CD32B) [2] = molecular target: T1, 细胞表面的人FcγRIIB (CD32B); assay: cell-based or functional assay
[3] = molecular target: T2, THP1单核细胞株上的CD32A (H131形式) (human, UniProt P12318 34-317); assay: FACS on THP-1 cells
T2 construct: whole, on cells; also called THP-I
T2 sequence (looked up): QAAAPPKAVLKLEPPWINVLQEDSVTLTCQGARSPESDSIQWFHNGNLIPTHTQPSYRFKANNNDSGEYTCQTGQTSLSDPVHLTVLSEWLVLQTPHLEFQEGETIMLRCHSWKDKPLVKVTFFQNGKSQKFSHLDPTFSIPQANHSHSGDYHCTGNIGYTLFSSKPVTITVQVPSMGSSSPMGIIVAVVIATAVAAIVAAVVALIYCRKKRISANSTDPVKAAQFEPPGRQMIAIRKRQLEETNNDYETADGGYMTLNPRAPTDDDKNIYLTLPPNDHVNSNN

细胞表面的人FcγRIIB (CD32B) [4] = molecular target: T1, 细胞表面的人FcγRIIB (CD32B); assay: two-colour FACS on CHO cells with full-length FcγRIIB
可溶性单体形式的人CD32A-R131 = molecular target: T3, 可溶性单体形式的人CD32A-R131 (human, UniProt P12318 34-217); assay: SPR (BIAcore 3000), antibody captured by goat anti-mouse F(ab′)2, soluble monomeric receptor injected
T3 construct: extracellular domain
T3 sequence (looked up): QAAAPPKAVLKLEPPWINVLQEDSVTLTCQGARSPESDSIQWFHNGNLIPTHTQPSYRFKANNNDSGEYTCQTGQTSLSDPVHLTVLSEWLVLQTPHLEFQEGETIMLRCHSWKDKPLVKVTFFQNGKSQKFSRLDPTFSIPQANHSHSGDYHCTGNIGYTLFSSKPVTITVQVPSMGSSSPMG

[5] = molecular target: T4, 可溶性单体形式的人CD32B (293H细胞中表达的可溶性细胞外结构域) (human, UniProt P31994 43-217); assay: SPR (BIAcore 3000), captured antibody, soluble monomeric receptor injected
T4 construct: extracellular domain; also called FcγRIIB
T4 sequence (looked up): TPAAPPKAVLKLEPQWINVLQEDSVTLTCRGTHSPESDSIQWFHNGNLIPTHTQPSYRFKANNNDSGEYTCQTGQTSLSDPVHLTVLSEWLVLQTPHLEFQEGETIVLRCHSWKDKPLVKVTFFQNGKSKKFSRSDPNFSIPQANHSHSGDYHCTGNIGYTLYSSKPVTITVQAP

人外周血白细胞上的huFcγRIIA = molecular target: T5, 人外周血白细胞上的huFcγRIIA (human, UniProt P12318 34-317); assay: FACS on human peripheral blood leukocytes
T5 construct: whole, on cells; also called FcγRIIA同种型
T5 sequence (looked up): T2 sequence (looked up)

[6] = molecular target: FcγRIIB (ELISA包被, 哺乳动物系统产生) (human) (UniProt P31994); assay: direct ELISA, receptor-coated plate

percent of cells labelled (细胞表面的人FcγRIIB (CD32B) [1]): 60 %
Molecule: 聚集的生物素化人IgG (ligand)

ADCC (细胞表面的人FcγRIIB (CD32B) [2]): > 10 ng/mL
Molecule: 嵌合的抗CD32B抗体ch2B6 (antibody)

binding result [3]: no binding
binding result (细胞表面的人FcγRIIB (CD32B) [4]): binds
binding result (可溶性单体形式的人CD32A-R131): no binding (tested: 100nM可溶性受体)
binding result [5]: binds
binding result (人外周血白细胞上的huFcγRIIA): no binding
fold binding against the commercial antibodies AT10, FL18.26 and IV.3 [6]: < 4.5 倍
B1: 由克隆2B6产生的小鼠单克隆抗体 (ATCC PTA-4591) (antibody)
heavy: QVQLQQPVTELVRPGASVMLSCKASDYPFTNYWIHWVKQRPGQGLEWIGVIDPSDTYPNYNKKFKGKATLTVVVSSSTAYMQLSSLTSDDSAVYYCARNGDSDYYSGMDYWGQGTSVTVSS
light: DILLTQSPAILSVSPGERVSFSCRTSQSIGTNIHWYQQRTNGFPRLLIKNVSESISGIPSRFSGSGSGTDFILSINSVESEDIADYYCQQSNTWPFTFGGGTKLEIK
notes: The entries may hold only the variable regions; also called 2B6抗体; m2B6
